Molecular target: TRPM8FA with the Ala805→Gly mutation (TRPM8_(FA_AG)) (collared flycatcher Ficedula albicollis) (UniProt U3JD03)
Assay: cryo-EM structure

stoichiometry N: 4
Substance: TRPM8FA with the Ala805→Gly mutation (TRPM8_(FA_AG)) (from UniProt U3JD03 1-1115) (natural protein)
